± gives the standard deviation of the averaged measurements.
Assay: total protein half-life in vivo (active degradation + dilution); higher = more stable protein
[1] = E. coli NCM3722 delta-clpP delta-lon delta-hslV, growth: N-lim chemostat, doubling time 6 h
[2] = E. coli NCM3722 delta-clpP, growth: N-lim chemostat, doubling time 6 h
[3] = E. coli NCM3722 delta-hslV, growth: N-lim chemostat, doubling time 6 h
[4] = E. coli NCM3722 delta-lon, growth: N-lim chemostat, doubling time 6 h
[5] = E. coli NCM3722 delta-smpB, growth: N-lim chemostat, doubling time 6 h
[6] = wild type E. coli NCM3722, growth: C-lim chemostat, doubling time 3 h
[7] = wild type E. coli NCM3722, growth: C-lim chemostat, doubling time 6 h
[8] = wild type E. coli NCM3722, growth: C-lim chemostat, doubling time 12 h
[9] = wild type E. coli NCM3722, growth: N-lim chemostat, doubling time 6 h
[10] = wild type E. coli NCM3722, growth: N-lim chemostat, doubling time 12 h
[11] = wild type E. coli NCM3722, growth: P-lim chemostat, doubling time 6 h
[12] = wild type E. coli NCM3722, growth: P-lim chemostat, doubling time 12 h

MAEWSGEYISPYAEHGKKSEQVKKITVSIPLKVLKILTDERTRRQVNNLRHATNSELLCEAFLHAFTGQPLPDDADLRKERSDEIPEAAKEIMREMGINPETWEY [P0A8U6]
total protein half-life in vivo [1]: > 8 h | total protein half-life in vivo [2]: 5.7 h | total protein half-life in vivo [3]: 5.96 ± 0.098 h | total protein half-life in vivo [4]: 6.2 ± 0.13 h | total protein half-life in vivo [5]: 6.26 ± 0.61 h | total protein half-life in vivo [6]: 3.19 ± 0.061 h | total protein half-life in vivo [7]: 5.63 ± 0.29 h | total protein half-life in vivo [8]: 6.09 h | total protein half-life in vivo [9]: 4.87 ± 0.35 h | total protein half-life in vivo [10]: 10.7 ± 6.7 h | total protein half-life in vivo [11]: 4.35 ± 0.99 h | total protein half-life in vivo [12]: 12 ± 4.2 h

MTDIAQLLGKDADNLLQHRCMTIPSDQLYLPGHDYVDRVMIDNNRPPAVLRNMQTLYNTGRLAGTGYLSILPVDQGVEHSAGASFAANPLYFDPKNIVELAIEAGCNCVASTYGVLASVSRRYAHRIPFLVKLNHNETLSYPNTYDQTLYASVEQAFNMGAVAVGATIYFGSEESRRQIEEISAAFERAHELGMVTVLWAYLRNSAFKKDGVDYHVSADLTGQANHLAATIGADIVKQKMAENNGGYKAINYGYTDDRVYSKLTSENPIDLVRYQLANCYMGRAGLINSGGAAGGETDLSDAVRTAVINKRAGGMGLILGRKAFKKSMADGVKLINAVQDVYLDSKITIA [P0A991]
total protein half-life in vivo [1]: 6.08 ± 0.41 h | total protein half-life in vivo [2]: 5.88 ± 0.5 h | total protein half-life in vivo [3]: 6.17 ± 0.49 h | total protein half-life in vivo [4]: 5.99 ± 0.7 h | total protein half-life in vivo [5]: 5.21 ± 0.23 h | total protein half-life in vivo [6]: 3.37 ± 0.44 h | total protein half-life in vivo [7]: 6.705 ± 0.067 h | total protein half-life in vivo [8]: 12.9 ± 0.75 h | total protein half-life in vivo [9]: 5.51 ± 0.26 h | total protein half-life in vivo [10]: 10.1 ± 0.44 h | total protein half-life in vivo [11]: 6.06 ± 0.11 h | total protein half-life in vivo [12]: 13.3 ± 0.99 h

MSYSNILVAVAVTPESQQLLAKAVSIARPVKGHISLITLASDPEMYNQLAAPMLEDLRSVMHEETQSFLDKLIQDAGYPVDKTFIAYGELSEHILEVCHKHHFDLVICGNHNHSFFSRASCSAKRVIASSEVDVLLVPLTGD
total protein half-life in vivo [1]: 4.56 ± 0.81 h | total protein half-life in vivo [2]: 3.97 h | total protein half-life in vivo [3]: 4.06 h | total protein half-life in vivo [4]: 4.66 ± 0.43 h | total protein half-life in vivo [5]: 3.93 ± 0.25 h | total protein half-life in vivo [6]: 3.26 ± 0.33 h | total protein half-life in vivo [7]: 3.71 h | total protein half-life in vivo [8]: 9.83 ± 3.1 h | total protein half-life in vivo [9]: 4.07 h | total protein half-life in vivo [10]: 6.65 h | total protein half-life in vivo [11]: 5.2 h | total protein half-life in vivo [12]: 11.8 ± 1.2 h

MKRLIMATMVTAILASSTVWAADNAPVAAQQQTQQVQQTQKTAAAAERISEQGLYAMRDVQVARLALFHGDPEKAKELTNEASALLSDDSTEWAKFAKPGKKTNLNDDQYIVINASVGISESYVATPEKEAAIKIANEKMAKGDKKGAMEELRLAGVGVMENQYLMPLKQTRNALADAQKLLDKKQYYEANLALKGAEDGIIVDSEALFVN
total protein half-life in vivo [11]: 4.05 h

MLDEKSSNTASVVVLCTAPDEATAQDLAAKVLAEKLAACATLIPGATSLYYWEGKLEQEYEVQMILKTTVSHQQALLECLKSHHPYQTPELLVLPVTHGDTDYLSWLNASLR
total protein half-life in vivo [1]: 4.37 h | total protein half-life in vivo [2]: 4.22 ± 1.7 h | total protein half-life in vivo [3]: 3.56 h | total protein half-life in vivo [5]: 3.26 ± 0.26 h | total protein half-life in vivo [8]: 7.25 h | total protein half-life in vivo [9]: 3.34 ± 0.39 h | total protein half-life in vivo [10]: 4.91 ± 0.15 h | total protein half-life in vivo [11]: 5.13 ± 0.32 h

MNKFLFAAALIVSGLLVGCNQLTQYTITEQEINQSLAKHNNFSKDIGLPGVADAHIVLTNLTSQIGREEPNKVTLTGDANLDMNSLFGSQKATMKLKLKALPVFDKEKGAIFLKEMEVVDATVQPEKMQTVMQTLLPYLNQALRNYFNQQPAYVLREDGSQGEAMAKKLAKGIEVKPGEIVIPFTD [P0AB26]
total protein half-life in vivo [3]: 6.63 ± 0.84 h | total protein half-life in vivo [4]: 6.72 ± 0.38 h | total protein half-life in vivo [5]: 6.38 ± 0.15 h | total protein half-life in vivo [6]: 3.55 ± 0.36 h | total protein half-life in vivo [7]: 5.37 ± 0.43 h | total protein half-life in vivo [8]: 11.9 ± 1.5 h | total protein half-life in vivo [9]: 5.75 ± 0.34 h | total protein half-life in vivo [10]: 13.4 ± 0.43 h | total protein half-life in vivo [11]: 6.01 ± 0.25 h | total protein half-life in vivo [12]: 12.36 ± 0.048 h

MDEFKPEDELKPDPSDRRTGRSRQSSERSERTERGEPQINFDDIELDDTDDRRPTRAQKERNEEPEIEEEIDESEDETVDEERVERRPRKRKKAASKPASRQYMMMGVGILVLLLLIIGIGSALKAPSTTSSDQTASGEKSIDLAGNATDQANGVQPAPGTTSAENTQQDVSLPPISSTPTQGQTPVATDGQQRVEVQGDLNNALTQPQNQQQLNNVAVNSTLPTEPATVAPVRNGNASRDTAKTQTAERPSTTRPARQQAVIEPKKPQATVKTEPKPVAQTPKRTEPAAPVASTKAPAATSTPAPKETATTAPVQTASPAQTTATPAAGAKTAGNVGSLKSAPSSHYTLQLSSSSNYDNLNGWAKKENLKNYVVYETTRNGQPWYVLVSGVYASKEEAKKAVSTLPADVQAKNPWAKPLRQVQADLK
total protein half-life in vivo [1]: 5.8 ± 0.35 h | total protein half-life in vivo [2]: 6.01 ± 0.27 h | total protein half-life in vivo [3]: 5.595 ± 0.021 h | total protein half-life in vivo [4]: 5.74 ± 0.32 h | total protein half-life in vivo [5]: 5.54 ± 0.12 h | total protein half-life in vivo [6]: 2.84 ± 0.091 h | total protein half-life in vivo [7]: 5.51 ± 0.26 h | total protein half-life in vivo [8]: 9.07 ± 0.37 h | total protein half-life in vivo [9]: 5.58 ± 0.49 h | total protein half-life in vivo [10]: 11.9 ± 2 h | total protein half-life in vivo [11]: 5.099 ± 0.038 h | total protein half-life in vivo [12]: 10.285 ± 0.01 h

METLIAISRWLAKQHVVTWCVQQEGELWCANAFYLFDAQKVAFYILTEEKTRHAQMSGPQAAVAGTVNGQPKTVALIRGVQFKGEIRRLEGEESDLARKAYNRRFPVARMLSAPVWEIRLDEIKFTDNTLGFGKKMIWLRDSGTEQA
total protein half-life in vivo [1]: 5.46 ± 0.32 h | total protein half-life in vivo [2]: 5.48 ± 0.64 h | total protein half-life in vivo [5]: 4.81 ± 0.52 h | total protein half-life in vivo [7]: 6.11 ± 0.22 h | total protein half-life in vivo [8]: 13.5 ± 1.2 h | total protein half-life in vivo [9]: 5.11 ± 0.18 h | total protein half-life in vivo [10]: 9.39 ± 0.75 h | total protein half-life in vivo [11]: 5.48 ± 1.1 h | total protein half-life in vivo [12]: 12.5 ± 0.68 h

MSAIEVKNLVKKFHGQTVLHGIDLEVKPGEVVAIIGPSGSGKTTLLRSINLLEQPEAGTITVGDITIDTARSLSQQKSLIRQLRQHVGFVFQNFNLFPHRTVLENIIEGPVIVKGEPKEEATARARELLAKVGLAGKETSYPRRLSGGQQQRVAIARALAMRPEVILFDEPTSALDPELVGEVLNTIRQLAQEKRTMVIVTHEMSFARDVADRAIFMDQGRIVEQGAAKALFADPEQPRTRQFLEKFLLQ
total protein half-life in vivo [2]: 5.314 ± 0.015 h | total protein half-life in vivo [3]: 5.44 ± 0.48 h | total protein half-life in vivo [4]: 6.65 ± 1.8 h | total protein half-life in vivo [5]: 5.38 ± 0.14 h | total protein half-life in vivo [6]: 3.11 ± 0.18 h | total protein half-life in vivo [7]: 5.25 ± 0.71 h | total protein half-life in vivo [8]: 10.2 ± 1.1 h | total protein half-life in vivo [9]: 6.41 ± 1.5 h | total protein half-life in vivo [10]: 9.13 ± 1.8 h | total protein half-life in vivo [11]: 5.16 ± 0.33 h | total protein half-life in vivo [12]: 12.2 ± 1.3 h
